From paper PMC12746103, “Structural insights into the exchange mechanism of a replicative DNA polymerase” (Nucleic Acids Research, 2025) come the findings set out here.

T1: dimer-interface mutant gp43(exo-) DNA polymerase;gp45 sliding clamp (wt) (T4 bacteriophage;T4 bacteriophage, UniProt P04415;P04525 1-898;1-228, D219A;D75R;Q430E;K432E|)
T1 sequence 1: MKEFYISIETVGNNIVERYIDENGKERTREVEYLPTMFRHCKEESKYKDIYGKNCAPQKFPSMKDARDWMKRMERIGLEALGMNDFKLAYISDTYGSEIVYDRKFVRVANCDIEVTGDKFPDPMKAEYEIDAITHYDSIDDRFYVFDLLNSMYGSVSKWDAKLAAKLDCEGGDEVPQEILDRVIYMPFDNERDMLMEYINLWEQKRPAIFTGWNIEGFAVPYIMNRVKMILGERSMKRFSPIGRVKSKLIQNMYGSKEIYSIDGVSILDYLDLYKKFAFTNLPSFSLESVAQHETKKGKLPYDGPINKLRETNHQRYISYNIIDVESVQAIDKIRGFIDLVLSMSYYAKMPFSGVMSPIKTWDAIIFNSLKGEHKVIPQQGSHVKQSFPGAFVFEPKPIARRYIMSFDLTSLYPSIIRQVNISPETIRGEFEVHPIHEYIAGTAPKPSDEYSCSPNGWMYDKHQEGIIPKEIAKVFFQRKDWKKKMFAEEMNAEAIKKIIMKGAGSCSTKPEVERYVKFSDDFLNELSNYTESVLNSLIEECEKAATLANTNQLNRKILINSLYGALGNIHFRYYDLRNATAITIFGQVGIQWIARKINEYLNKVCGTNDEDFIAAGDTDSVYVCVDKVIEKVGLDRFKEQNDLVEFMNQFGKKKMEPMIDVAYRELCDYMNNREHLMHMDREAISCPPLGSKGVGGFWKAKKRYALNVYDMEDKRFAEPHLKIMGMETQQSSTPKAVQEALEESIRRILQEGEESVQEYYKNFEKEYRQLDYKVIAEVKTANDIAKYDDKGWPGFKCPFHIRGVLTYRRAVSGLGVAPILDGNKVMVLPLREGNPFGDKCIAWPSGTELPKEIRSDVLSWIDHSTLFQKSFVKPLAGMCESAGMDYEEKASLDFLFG
T1 sequence 2: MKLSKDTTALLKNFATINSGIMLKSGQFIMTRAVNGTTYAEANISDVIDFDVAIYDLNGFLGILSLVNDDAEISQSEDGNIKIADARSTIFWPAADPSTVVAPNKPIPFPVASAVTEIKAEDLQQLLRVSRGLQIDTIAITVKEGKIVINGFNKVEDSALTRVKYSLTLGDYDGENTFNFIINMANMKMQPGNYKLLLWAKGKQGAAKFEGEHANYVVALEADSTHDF

T2: gp43(exo-) DNA polymerase;gp45 sliding clamp (wt) (T4 bacteriophage;T4 bacteriophage, UniProt P04415;P04525 1-898;1-228, D219A|)
T2 sequence 1: T1 sequence 1 with R75D, E430Q, E432K
T2 sequence 2: T1 sequence 2

B1: T4 bacteriophage gp43(exo-) exonuclease-deficient DNA polymerase (D219A) (enzyme, bacteriophage T4)
chain: T1 sequence 1 with R75D, E430Q, E432K
notes: DNA polymerase gp43 of bacteriophage T4 with the exonuclease-deficient mutation D219A; also called gp43 polymerase; T4 polymerase; source: E. coli BL21(DE3), purified (chitin resin with intein-mediated cleavage, heparin)
B2: T4 bacteriophage gp45 sliding clamp (natural protein, bacteriophage T4)
chain: T1 sequence 2
notes: sliding clamp gp45 of bacteriophage T4, wild type, homotrimeric ring; also called wt-gp45 clamp; gp45 clamp; source: E. coli BL21(DE3), pET26b, purified (hydroxyapatite, anion exchange)
B3: dimer-interface mutant gp43(exo-) polymerase (D75R, Q430E, K432E in gp43(exo-) D219A) (enzyme, bacteriophage T4)
chain: T1 sequence 1
notes: DNA polymerase gp43 of bacteriophage T4 with D219A (exo-) and the three dimer-interface mutations D75R, Q430E and K432E; PDB 9EA3 holds this mutant; the other three entries hold its parent m1; also called dimer-interface mutant polymerase; mutant polymerase; source: E. coli BL21(DE3), purified (chitin resin with intein-mediated cleavage, heparin)
B4: P/T DNA (25-nt primer / 38-nt template) (dsDNA)
DNA 1: CTGCACGAATTAAGCAATTCGTAATCATGGTCATAGCT
DNA 2: AGCTATGACCATGATTACGAATTGC
modifications: primer 3'-terminal dideoxycytidine (ddC)

Positions count from the first letter of the chain named. In names and notes the source's numbering stands. Several values for one entry are separate records, joined by “and”; a condition that tells them apart may be missing. Identical values can stand only once.

Data set [1] concerns the target B2. As to the kind of experiment: cryo-EM structure; 10 μM gp45 clamp mixed with 5 μM primer/template DNA (20 mM HEPES pH 7.5, 150 mM KOAc, 10 mM MgCl2, 0.5 mM ddTTP, 2 mM DTT; 10 min, 30°C), then 6 μM gp43 polymerase added (10 min room temperature, 1 h on ice); no clamp loader. The note with it: both partners purified.
Data set [2] deals with the molecule itself. Described as above.
Data set [3] deals with B1. The data set is described as above. The following applies: both partners purified.
Data set [4] concerns the target B3. The data set is described as above. The following applies: both partners purified.
For data set [5], the target named is T1, dimer-interface mutant gp43(exo-) DNA …. As to the kind of experiment: cryo-EM; ddTTP; one-polymerase holoenzyme, 4.0 A; cryo-EM assembly: 1.2 polymerase : 2 clamp : 1 DNA (molar) with ddTTP; proteins purified in HEPES pH 7.8 buffers; assembly salt and temperature not given in material. The following applies: protein: recombinant;recombinant; tags: self-cleaving intein chitin tag, removed;; copies: 1;3; primer-template; 13 nt 5' template overhang, 25 bp duplex.

Data set [6] addresses T2, gp43(exo-) DNA polymerase;gp45 sliding …. The experiment in a line: cryo-EM; ddTTP; two-polymerase complex state 1; DNA at right polymerase, primer end outside both active sites; cryo-EM assembly: 1.2 polymerase : 2 clamp : 1 DNA (molar) with ddTTP; proteins purified in HEPES pH 7.8 buffers; assembly salt and temperature not given in material. The following applies: protein: recombinant;recombinant; chain copies: 2;3; primer-template; 13 nt 5' template overhang, 25 bp duplex.

On to B1, for which the “stoichiometry N” value in data set [1] was 1 polymerase per clamp ring and 2 polymerases per clamp ring; in data set [2], 2.
For the molecule B2, the binding result in data set [3] and in data set [4] was “binds” in each case.
B3: the “stoichiometry N” value in data set [1] came to 1 polymerase per clamp ring.
In the case of B4, the binding result in data set [5] and in data set [6] was “binds” each time.

Broadly, the stoichiometry N is the number of molecules, sites or subunits per partner or assembly.
